Results reported in the RNAGym collection of RNA variant scans (doi:10.1073/pnas.2313332121).

B1: TPR t1 (parent)
chain: GACCAAUCUGCCCUCAGAGCUCGAGAACAUCUUCGGAUGCAGAGGAGGCAGGCUUCGGUGGCGCGAUAGCGCCAACGUCCUCAACCUCCAAUGCAUCCCACCACAUGAUGAUGCCUGAAGAGCCUUGGUUUUUUG

Variants of: B1
Test: polymerase ribozyme fitness, log enrichment relative to wild type (log ratio); higher = more active; in vitro selection for triplet polymerase activity
Procedure, shortened: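 Frozen incubation at −7 °C formed the core of a single, triplicate in vitro selection round applied to PCR-built, transcribed mutant libraries of each subunit of a heterodimeric triplet polymerase ribozyme. Extended constructs were gel-excised, captured with streptavidin beads and amplified by RT-PCR, and input and output libraries were Illumina-sequenced with a filter of ≥10 input reads and ≥1 read per output. Fitness is the logarithm of genotype enrichment relative to wild-type enrichment, with inverse-variance-weighted replicate averaging, and the logarithm is base 2.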

Point of comparison: C82G C102A G120A G122U, “polymerase ribozyme fitness (log ratio)” value -2.05. Against it:
- A84G C98U A100U — lower, -4.01
- C80U G117C — lower, -3.58
- C80U A103C — lower, -6.57
- C82G U112G — lower, -2.98
- U81C C124A — higher, 0.431
- U81G U129A — lower, -5.4
- C79A U131C — higher, -0.838
- C82G A83C C115G G122A — lower, -2.67
- C79A U92C C98G C104A C114G — lower, -7.71
- C79U C94A C99U A121G — lower, -2.9
- C82G A95C G110U — lower, -3.96
- C79U U109G — lower, -5.09
- C79U C94G A100C G117C — lower, -6.32
- U81C C85U A118G G122U C124U U129A — lower, -3.58
- C82A U112A C114G — higher, -0.66
- A84C G120U — higher, 1.51
- U81A C88U — higher, -0.655
- C79G G120A — higher, -0.791
- C79G C115G — lower, -4.07
- A84C C124U — higher, 1.55
- C82G U109G — lower, -5.33
- U81G C88U — lower, -4.05
- C79A U87C G113U — lower, -4.71
- C80U U112A — higher, 0.959
- A84C C94G U96C C124U — higher, -0.869
- C80U U106C — higher, -0.325
- A84G C98A — lower, -6.26
- C80U G117A U133G — higher, -1.17
- A83U G93C C104U U116G G122A — lower, -4.03
- C80U A111G — higher, -0.196
- A83U C85A U112A C114A — lower, -3.32
- C79U C89A C115A — higher, -0.609
- C79A C89A — lower, -3.43
- C82A G127A — within 0.2 log units, -2.18
- C80A C82U A83U C101G — lower, -5.83
- U81G U125A — lower, -3.53
- U81C C86U U116G — lower, -3.1
- A84C U116G — higher, -1.83
- C82G C94G — within 0.2 log units, -2.14
- C82A U112A U131A — higher, 1.09
- C79U A91U — lower, -2.48
- C80U C102A — within 0.2 log units, -2.21
- A83U C104A — higher, -1.18
- C82U G93C G117U — lower, -2.53
- C80U C114A — higher, -1.85
- A83U G128C — lower, -2.32
- C82U C88A — higher, -0.557
- U81C C82A — higher, -1.8
- C80U — higher, -0.463
- C80G — lower, -5.78
- C80A — lower, -2.86
- C79A G117A — lower, -2.46
- C79A G117C — lower, -5.12
- U81G C89G A121G — lower, -4.14
- C80G U87G C88A U112A — lower, -4.77
- C79A C115A — within 0.2 log units, -2.1
- C82G C123U — higher, 0.314
- C80U G110A — higher, -1.21
- U81G C94U A121G — lower, -2.71
- C82U C114U — within 0.2 log units, -2.08
- C79G C89U A91C — lower, -4.46
- C79U C99A U112C — lower, -4.18
- C82A C86A — higher, -0.787
- C82A C86G — higher, -1.3
- C80A U112A — lower, -2.64
- C79U G135U — higher, -0.964
- A84C C85U U87A C89G C124A — lower, -5.8
- C82A C102A — lower, -2.33
- U81A — higher, -1.01
- U81C — higher, -0.208
- U81G — lower, -3.8
- C80U A90U — higher, -0.991
- C82G C99A C101U A119G — lower, -6.25
- C82G U132A — higher, -0.6
- C82A C94U — higher, -0.596
- C80A G113U — lower, -4.78
- A83C C104A — higher, -1.32
- C82A C115A — higher, -1.19
- A84G G93U U125G — lower, -2.63
- C82A C94U C98U U106C — within 0.2 log units, -2.21
- C82G C114U — lower, -2.95
- A83C G120A — higher, 0.209
